Measurements taken from patent US20200317768A1 (published 2020).

T1: human FcγRIIb extracellular domain, C-terminal His-tag (human, UniProt P31994 43-217)
T1 construct: also called FcgRIIb (human)
T1 sequence: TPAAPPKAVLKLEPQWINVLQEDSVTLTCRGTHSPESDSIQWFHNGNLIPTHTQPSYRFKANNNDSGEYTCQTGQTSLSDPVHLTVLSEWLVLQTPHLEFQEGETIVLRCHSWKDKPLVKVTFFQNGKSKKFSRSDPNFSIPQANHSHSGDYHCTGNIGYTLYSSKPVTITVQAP

T2: human FcγRIIaH extracellular domain, C-terminal His-tag (human, UniProt P12318 34-217)
T2 construct: also called human FcγRIIa (type H); FcgRIIaH
T2 sequence: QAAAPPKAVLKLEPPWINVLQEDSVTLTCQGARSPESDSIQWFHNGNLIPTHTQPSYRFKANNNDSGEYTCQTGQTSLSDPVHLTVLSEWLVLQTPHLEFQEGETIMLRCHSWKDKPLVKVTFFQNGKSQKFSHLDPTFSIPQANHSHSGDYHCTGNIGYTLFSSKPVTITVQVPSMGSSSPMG

T3: human FcγRIIaR extracellular domain, C-terminal His-tag (human, UniProt P12318 34-217)
T3 construct: also called human FcγRIIa (type R); FcgRIIaR
T3 chain: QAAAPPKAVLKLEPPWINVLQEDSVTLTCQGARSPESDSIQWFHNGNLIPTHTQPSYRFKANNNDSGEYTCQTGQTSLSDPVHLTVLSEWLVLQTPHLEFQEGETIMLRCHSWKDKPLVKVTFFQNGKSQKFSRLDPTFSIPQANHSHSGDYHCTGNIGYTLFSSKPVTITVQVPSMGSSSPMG


Columns and labels:
Assay in all cases: SPR 25C; FcgR bound per captured antibody, relative to parent B3
[1] = target: T1, human FcγRIIb extracellular domain, …
[2] = target: T2, human FcγRIIaH extracellular domain, …
[3] = target: T3, human FcγRIIaR extracellular domain, …

Row | Binding to human FcgRs (parent B3 = 100) [1] [parent B3 = 100] | Binding to human FcgRs (parent B3 = 100) [2] [parent B3 = 100] | Binding to human FcgRs (parent B3 = 100) [3] [parent B3 = 100] | Binder
1 | 108 | 82 | 75 | GpH7-B3 variant S239I/GpL16-k0 (antibody, human IgG1, kappa) heavy: not shown light: DIVMTQSPLSLPVTPGEPASISCQASESLVHSNRNTYLHWYLQKPGQSPQLLIYKVSNRFSGVPDRFSGSGSGTDFTLKISRVEAEDVGVYYCSQNTHVPPTFGQGTKVEIERTVAAPSVFIFPPSDEQLKSGTASVVCLLNNFYPREAKVQWKVDNALQSGNSQESVTEQDSKDSTYSLSSTLTLSKADYEKHKVYACEVTHQGLSSPVTKSFNRGEC
2 | 42 | 27 | 3 | GpH7-B3 variant S267H/GpL16-k0 (antibody, human IgG1, kappa) heavy: not shown light: DIVMTQSPLSLPVTPGEPASISCQASESLVHSNRNTYLHWYLQKPGQSPQLLIYKVSNRFSGVPDRFSGSGSGTDFTLKISRVEAEDVGVYYCSQNTHVPPTFGQGTKVEIERTVAAPSVFIFPPSDEQLKSGTASVVCLLNNFYPREAKVQWKVDNALQSGNSQESVTEQDSKDSTYSLSSTLTLSKADYEKHKVYACEVTHQGLSSPVTKSFNRGEC
3 | 114 | 99 | 71 | GpH7-B3 variant S298L/GpL16-k0 (antibody, human IgG1, kappa) heavy: not shown light: DIVMTQSPLSLPVTPGEPASISCQASESLVHSNRNTYLHWYLQKPGQSPQLLIYKVSNRFSGVPDRFSGSGSGTDFTLKISRVEAEDVGVYYCSQNTHVPPTFGQGTKVEIERTVAAPSVFIFPPSDEQLKSGTASVVCLLNNFYPREAKVQWKVDNALQSGNSQESVTEQDSKDSTYSLSSTLTLSKADYEKHKVYACEVTHQGLSSPVTKSFNRGEC
4 | 124 | 99 | 80 | GpH7-B3 variant S239N/GpL16-k0 (antibody, human IgG1, kappa) heavy: not shown light: DIVMTQSPLSLPVTPGEPASISCQASESLVHSNRNTYLHWYLQKPGQSPQLLIYKVSNRFSGVPDRFSGSGSGTDFTLKISRVEAEDVGVYYCSQNTHVPPTFGQGTKVEIERTVAAPSVFIFPPSDEQLKSGTASVVCLLNNFYPREAKVQWKVDNALQSGNSQESVTEQDSKDSTYSLSSTLTLSKADYEKHKVYACEVTHQGLSSPVTKSFNRGEC
5 | 107 | 79 | 71 | GpH7-B3 variant S239V/GpL16-k0 (antibody, human IgG1, kappa) heavy: not shown light: DIVMTQSPLSLPVTPGEPASISCQASESLVHSNRNTYLHWYLQKPGQSPQLLIYKVSNRFSGVPDRFSGSGSGTDFTLKISRVEAEDVGVYYCSQNTHVPPTFGQGTKVEIERTVAAPSVFIFPPSDEQLKSGTASVVCLLNNFYPREAKVQWKVDNALQSGNSQESVTEQDSKDSTYSLSSTLTLSKADYEKHKVYACEVTHQGLSSPVTKSFNRGEC
6 | 283 | 176 | 125 | GpH7-B3 variant S267A/GpL16-k0 (antibody, human IgG1, kappa) heavy: not shown light: DIVMTQSPLSLPVTPGEPASISCQASESLVHSNRNTYLHWYLQKPGQSPQLLIYKVSNRFSGVPDRFSGSGSGTDFTLKISRVEAEDVGVYYCSQNTHVPPTFGQGTKVEIERTVAAPSVFIFPPSDEQLKSGTASVVCLLNNFYPREAKVQWKVDNALQSGNSQESVTEQDSKDSTYSLSSTLTLSKADYEKHKVYACEVTHQGLSSPVTKSFNRGEC
7 | 112 | 63 | 3 | GpH7-B3 variant S267L/GpL16-k0 (antibody, human IgG1, kappa) heavy: not shown light: DIVMTQSPLSLPVTPGEPASISCQASESLVHSNRNTYLHWYLQKPGQSPQLLIYKVSNRFSGVPDRFSGSGSGTDFTLKISRVEAEDVGVYYCSQNTHVPPTFGQGTKVEIERTVAAPSVFIFPPSDEQLKSGTASVVCLLNNFYPREAKVQWKVDNALQSGNSQESVTEQDSKDSTYSLSSTLTLSKADYEKHKVYACEVTHQGLSSPVTKSFNRGEC
